Test results as given in patent US20100143254A1.

What follows are substances tested against human FcRn (human) (UniProt P55899) (assay: SPR (BIAcore) steady state, immobilized IgG, human FcRn 16-2860 nM, pH 6.0).

Kd | Substance
2.68 µM | MEDI-524 (wild type) (antibody)
3.03 µM | MEDI-524 G385S + Q386I (antibody)
15.9 µM | MEDI-524 L309N (antibody)
11.3 µM | MEDI-524 R255V (antibody)
